Experimental findings from the supplement of paper PMC7877785 are described below.

± gives the uncertainty stated by the source.

A short description of the data set: self-splicing fitness, log relative to wild type (ln ratio); higher = more splicing; Tetrahymena group I intron in knt gene, E. coli kanamycin selection, DiMSum; sequences stand for … in CUCUCU…GGAGGGAAAAGUUAUCAGGCAUGCACCUGGUAGCUAGUCUUUAAACCAAUAGAUUGCAUCGGUUUAAAAGGCAAGACCGUCAAAUUGCGGGAAAGGGGUCAACAGCCGUUCAGUACCAAGUCUCAGGGGAAACUUUGAGAUGGCCUUGCAAAGGGUAUGGUAAUAAGCUGACGGACAUGGUCCUAACCACGCAGCCAAGUCCUAAGUCAACAGAUCUUCUGUUGAUAUGGAUGCAGUUCACAGACUAAAUGUCGGUCGGGGAAGAUGUAUUCUUCUCAUAAGAUAUAGUCGGACCUCUCCUUAAUGGGAGCUAGCGGAUGAAGUGAUGCAACACUGGAGCCGCUGGGAACUAAUUUGUAUGCGAAAGUAUAUUGAUUAGUUUUGGAGUACUCGUGGUCG
The procedure, abridged:
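Pooled colonies went to amplicon sequencing on an Illumina HiSeq 2500 after six replicate transformations. The plates were LB agar with 100 μg/mL carbenicillin, 50 μM IPTG and 0.2% rhamnose, with or without 25 μg/mL kanamycin, incubated overnight at 37°C or 30°C. The E. coli BL21(DE3) library had all eight P1ex-region intron nucleotides randomised, the intron placed in the knt kanamycin-resistance gene on pET-22b(+). DiMSum fitness is the error-weighted combination of replicate fold changes, kanamycin against none, normalised to wild type.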

For the sequence CAUUAGCAAUAUUACGCCCG, the “self-splicing fitness (ln)” value stood at 0.404 ± 0.13 (30 °C) and 0.579 ± 0.17 (37 °C).
On the same counts, the results for UACAAGCAAUAUUACGGUGG are -1.65 ± 0.051 and -1.25 ± 0.064.
UGAUAGCAAUAUUACGGCUG: the “self-splicing fitness (ln)” value by setting is: (30 °C) 0.473 ± 0.11; (37 °C) -0.149 ± 0.14.
Turning to CUGGAGCAAUAUUACGGCAU, the “self-splicing fitness (ln)” value (30 °C) is -3.26 ± 0.47.
On to UGUGAGCAAUAUUACGUGGU, for which the “self-splicing fitness (ln)” value reads like this: (30 °C) -3.75 ± 0.23; (37 °C) -1.88 ± 0.17.
The like results for CACGAGCAAUAUUACGGGGG were, in that order, -3.04 ± 0.19 and -2.52 ± 0.25.
As for CAGUAGCAAUAUUACGUACG, the “self-splicing fitness (ln)” value was 0.212 ± 0.13 (30 °C) and 0.0818 ± 0.15 (37 °C).
The like results for CAAUAGCAAUAUUACGCUGG were, in that order, -1.32 ± 0.13 and -0.734 ± 0.14.
The like results for CGUGAGCAAUAUUACGUUGG were, in that order, -2.62 ± 0.12 and -1.45 ± 0.11.
The like results for ACUAAGCAAUAUUACGGCUG were, in that order, -0.108 ± 0.076 and 0.16 ± 0.097.
For the sequence GUUUAGCAAUAUUACGGGCU, the “self-splicing fitness (ln)” value (30 °C) was -3.45 ± 0.34 and the “self-splicing fitness (ln)” value (37 °C) is -0.606 ± 0.2.
As to ACCUAGCAAUAUUACGCGGG, the “self-splicing fitness (ln)” value (30 °C) is -3.58 ± 0.24.
Regarding CACUAGCAAUAUUACGCGCA, the “self-splicing fitness (ln)” value runs as follows: (30 °C) -2.52 ± 0.16; (37 °C) -1.85 ± 0.2.
On the same counts, the results for ACACAGCAAUAUUACGUAGC are -3.75 ± 0.14 and -2.11 ± 0.12.
The like results for AUAGAGCAAUAUUACGACAG were, in that order, -2.6 ± 0.18 and -0.985 ± 0.2.
The like results for ACCCAGCAAUAUUACGUUUC were, in that order, -2.36 ± 0.062 and -1.35 ± 0.082.
On to UUGCAGCAAUAUUACGUGGU, for which the “self-splicing fitness (ln)” value (30 °C) was -2.14 ± 0.16 and the “self-splicing fitness (ln)” value (37 °C) was -2.76 ± 0.28.
The like results for GAGAAGCAAUAUUACGUCCG were, in that order, -1.48 ± 0.091 and -0.864 ± 0.1.
Take GGGAAGCAAUAUUACGCCAU: the “self-splicing fitness (ln)” value reads like this: (30 °C) -3.31 ± 0.25; (37 °C) -0.83 ± 0.25.
As for GCAGAGCAAUAUUACGUCCG, the “self-splicing fitness (ln)” value by setting is: (30 °C) -2.57 ± 0.14; (37 °C) -2.51 ± 0.17.
The like results for UCCAAGCAAUAUUACGCGUC were, in that order, -3.21 ± 0.1 and -2.63 ± 0.11.
On the same counts, the results for AGGAAGCAAUAUUACGCCUG are -1.15 ± 0.14 and 0.257 ± 0.17.
CAUGAGCAAUAUUACGGGUA: the “self-splicing fitness (ln)” value by setting is: (30 °C) -2.86 ± 0.28; (37 °C) -2.23 ± 0.28.
The like results for GGCUAGCAAUAUUACGACAC were, in that order, -0.572 ± 0.11 and 0.6 ± 0.16.
The like results for CGAAAGCAAUAUUACGCCCU were, in that order, -0.989 ± 0.15 and 0.0487 ± 0.19.
On the same counts, the results for UCUAAGCAAUAUUACGGUAU are -4.13 ± 0.27 and -1.56 ± 0.21.
On to UAUGAGCAAUAUUACGUCGC, for which the “self-splicing fitness (ln)” value (30 °C) is -4.2 ± 0.39 and the “self-splicing fitness (ln)” value (37 °C) is -2.45 ± 0.39.
The like results for CCACAGCAAUAUUACGCUUG were, in that order, -2.66 ± 0.075 and -1.96 ± 0.083.
On the same counts, the results for UAUUAGCAAUAUUACGUAAU are -3.24 ± 0.26 and -1.93 ± 0.24.
The like results for UCAUAGCAAUAUUACGGAUG were, in that order, -2.58 ± 0.21 and -2.07 ± 0.21.
As for GGUUAGCAAUAUUACGCCGU, the “self-splicing fitness (ln)” value was -1.91 ± 0.22 (30 °C) and -1.03 ± 0.21 (37 °C).
The like results for UUACAGCAAUAUUACGCAGA were, in that order, -1.84 ± 0.14 and -0.823 ± 0.12.
On the same counts, the results for UUAUAGCAAUAUUACGUAUC are -3.79 ± 0.31 and -3.04 ± 0.32.
The like results for AAAUAGCAAUAUUACGACCU were, in that order, -0.0682 ± 0.092 and 0.265 ± 0.13.
Regarding AUCGAGCAAUAUUACGGGUG, the “self-splicing fitness (ln)” value reads like this: (30 °C) -3.28 ± 0.14; (37 °C) -1.89 ± 0.12.
The like results for AAGUAGCAAUAUUACGAAAC were, in that order, -3.53 ± 0.27 and -1.45 ± 0.29.
On the same counts, the results for CUUCAGCAAUAUUACGUAUU are -3.18 ± 0.17 and -2.37 ± 0.2.
On the same counts, the results for GGUAAGCAAUAUUACGACGU are 0.151 ± 0.1 and 0.677 ± 0.13.
